# Assay results from publication PMC4070910, “Cathepsin S Signals via PAR2 and Generates a Novel Tethered Ligand Receptor Agonist” (PLoS ONE, 2014).
# “Also recorded” adds a separate entry of the source.
# B1: cathepsin S: Recombinant human cathepsin S, cysteine protease, expressed in E.coli, refolded and activated (protein, UniProt P25774 115-331, looked up)
# Cathepsin S: LPDSVDWREKGCVTEVKYQGSCGACWAFSAVGALEAQLKLKTGKLVSLSAQNLVDCSTEKYGNKGCNGGFMTTAFQYIIDNKGIDSDASYPYKAMDQKCQYDSKYRAATCSKYTELPYGREDVLKEAVANKGPVSVGVDARHPSFFLYRSGVYYEPSCTQNVNHGVLVVGYGDLNGKEYWLVKNSWGHNFGEEGYIRMARNKGNHCGIASFPSYPEI
# Tests used:
# human PAR2 = test: Fura-2 calcium imaging in HeLa cells transfected with PAR2 cDNA; assay type: cell-based
# Procedure: (§1) Human PAR2 cDNA was cloned as an Xho I-Hind III fragment (1206 bp) into pcDNA3.1(−). 10 µg of DNA were diluted into 0.5 ml of DMEM and mixed with 0.5 ml of DMEM containing 10 µl of Lipofectamine 2000 transfection reagent and incubated at room temperature for 20 minutes. HeLa cells were grown to confluence, trypsinized and 1×10^6 cells were pelleted in a 15 ml tube by centrifugation at 1000 rpm for 5 minutes. The DMEM-Lipofectamine 2000-DNA mixture (1 ml) was added to the cell pellet, resuspended gently and incubated at room temperature for 20 minutes. Four ml of complete DMEM with 10% FBS were added to the tube, mixed by inverting the tube several times, plated into a 96-well glass bottom plate at 20,000 cells/well, and placed in a 37°C CO2 incubator. HeLa cells transfected with vector alone or salmon sperm DNA (shown in the figures) were plated as a control. The medium was aspirated two days after transfection. Fura-2 was used as a ratiometric calcium-sensitive indicator as follows. 100 µl of complete DMEM containing 2 µM of Fura-2 were added to each well and left at room temperature in the dark for 1 hr. Following loading with Fura-2, the medium was aspirated and replaced with 90 µl of HEPES-buffered saline (20 mM HEPES, 115 mM NaCl, 5.4 mM KCl, 2 mM CaCl2, 0.8 mM MgCl2, 13.8 mM glucose, pH 7.4).
# Imaging was performed using a Zeiss Axiovert 200 M microscope platform equipped with a flipping filter wheel for ratiometric imaging. Axiovision software, version 4.6 was used for image analysis of the cells which were excited at 340 nm and 380 nm. Ten µl of peptide agonist were added at 20 seconds after the start of the excitation procedure. Images were taken every 5 seconds, including at zero time, during a 3-minute period or longer if required. The software later analyzed all images taken during each excitation period. Typically, ratiometric changes were measured in 10–20 cells in each image. An average of the fluorescence of the cells in each image was calculated and plotted against time in seconds.
# HeLa cells transfected with PAR2 cDNA were subjected to ratiometric imaging as described above with PAR2 peptides, SLIGRL, KVDGTS, and SLIGKVDGTS in addition to the reverse peptides LRGILS and STGDVK at concentrations from 1 nM - 1 mM. Each of the concentration-dependent readings was performed in triplicate. Maximum intensities at each of the dilutions were calculated and plotted against concentration using GraphPad/PRISM software version 6.0 (Irvine, CA). Error bars represent +/−SEM.
# [1] = system: luciferase-PAR2 (native PAR2); test: Gaussia luciferase release, luciferase-PAR2; assay type: cell-based, human; details: cathepsin S 2 µM, 10 minutes, room temperature, triplicate
# Source text: (§2) Gaussia luciferase cDNA was cloned, without its termination codon, into pcDNA3.1(−) as an Xho I-EcoR I fragment. Human PAR2 cDNA and its mutants, M1, M2 and M3, were generated using PCR primers designed to start after the signal sequence and end with a termination codon: […] and […] . The PCR amplified cDNAs were cloned into EcoR I and Hind III sites C-terminal to Gaussia luciferase cDNA. The resulting plasmids were called pGLPAR2, pGLPAR2M1, pGLPAR2M2 and pGLPAR2M3.
# The plasmid DNAs pGLPAR2, pGLPAR2M1, pGLPAR2M2 and pGLPAR2M3 (10 µg of each) were transfected into 2×10^6 HeLa cells as described above and plated into 10 cm dishes. HeLa cells transfected with salmon sperm were used as controls. Forty-eight hours after transfection, the cells were washed twice with PBS, scraped and pelleted. Cells were scraped in order to eliminate the use of trypsin, which could activate PARs, and allowed for the luminescence assay to be performed in a small volume. Pelleted cells were resuspended into 200 µl PBS, and 100 µl of each was incubated with cathepsin S at a final concentration 2 µM for 10 minutes at room temperature. Untreated cells were processed by the same methods for a negative control. […] Luminescence assays were performed in triplicate on 50 µl of the supernatants according to the instructions of the manufacturer (New England Biolabs, Ipswich, MA).
# [2] = system: luciferase-PAR2M1 (leucine38 to alanine); test: Gaussia luciferase release, luciferase-PAR2M1; assay type: cell-based, human; details: cathepsin S 2 µM, 10 minutes, room temperature, triplicate
# Source text: as §2
# (§3) The QuickChange site-directed mutagenesis procedure (Agilent Technologies, Santa Clara, CA) was used to generate PAR2 N-terminal mutants. PAR2M1, with a single amino acid change, was created by substituting the leucine^38 codon, CTT, with alanine, GCT, using the primers: PAR2M1F, […], and PAR2M1R, […]. […]
# (§4) The plasmid DNAs pGLPAR2, pGLPAR2M1, pGLPAR2M2 and pGLPAR2M3 (10 µg of each) were transfected into 2×10^6 HeLa cells as described above and plated into 10 cm dishes. […] Cells were scraped in order to eliminate the use of trypsin, which could activate PARs, and allowed for the luminescence assay to be performed in a small volume. […] Luminescence assays were performed in triplicate on 50 µl of the supernatants according to the instructions of the manufacturer (New England Biolabs, Ipswich, MA).
# [3] = system: luciferase-PAR2M2 (glycine40 to alanine); test: Gaussia luciferase release, luciferase-PAR2M2; assay type: cell-based, human; details: cathepsin S 2 µM, 10 minutes, room temperature, triplicate
# Source text: as §2, §3, §4
# [4] = system: luciferase-PAR2M3 (leucine38 and glycine40 to alanines); test: Gaussia luciferase release, luciferase-PAR2M3; assay type: cell-based, human; details: cathepsin S 2 µM, 10 minutes, room temperature, triplicate
# Source text: as §2, §3, §4
# [5] = system: PAR2M2 (glycine40 to alanine); test: Calcium imaging in HeLa cells transfected with PAR2M2; assay type: cell-based, human; details: cathepsin S 2 µM, KVDGTS 100 µM
# Procedure: as §1, with “100 µl of complete DMEM containing 2 µM of Fura-2 were added to each well and left at room temperature in the dark for 1 hr. Following loading with Fura-2, the medium was aspirated and replaced with 90 µl of HEPES-buffered saline (20 mM HEPES, 115 mM NaCl, 5.4 mM KCl, 2 mM CaCl2, 0.8 mM MgCl2, 13.8 mM glucose, pH 7.4).” left out
# (§5) Imaging was performed using a Zeiss Axiovert 200 M microscope platform equipped with a flipping filter wheel for ratiometric imaging. […] The software later analyzed all images taken during each excitation period. Typically, ratiometric changes were measured in 10–20 cells in each image. An average of the fluorescence of the cells in each image was calculated and plotted against time in seconds. […]
# [6] = system: PAR2M3 (leucine38 and glycine40 to alanines); test: Calcium imaging in HeLa cells transfected with PAR2M3; assay type: cell-based, human; details: cathepsin S 2 µM, KVDGTS 100 µM
# Procedure: as §1, with “100 µl of complete DMEM containing 2 µM of Fura-2 were added to each well and left at room temperature in the dark for 1 hr. Following loading with Fura-2, the medium was aspirated and replaced with 90 µl of HEPES-buffered saline (20 mM HEPES, 115 mM NaCl, 5.4 mM KCl, 2 mM CaCl2, 0.8 mM MgCl2, 13.8 mM glucose, pH 7.4).” left out
# as §5
molecule,measurement,setting,value
B1,effect as first agent on calcium response to second agent (in words),"human PAR2; PAR2-transfected HeLa, KVDGTS 100 µM, cathepsin S 2 µM, papain 2 µM, trypsin 10 nM, second agent after up to 60 minutes, room temperature",failed to induce a calcium response at any time up to 60 minutes
same,calcium response to the substance as second agent after KVDGTS (in words),"human PAR2; PAR2-transfected HeLa, second agent after 2, 3, 5, 10, 30 and 60 minutes (cathepsin S), papain 2 µM, trypsin 10 nM, room temperature",present but reduced
same,calcium response (in words),"human PAR2; single-cell imaging, KVDGTS 100 µM, SLIGRL 10 µM, IGKVDG 100 µM, cathepsin S 2 µM, room temperature",able to stimulate native PAR2 and PAR2M1
same,concentration at which active/effective,human PAR2; summary of these studies (discussion),1 to 2 µM
same,"receptor cleavage, luciferase luminescence (in words)",[1],cleaved the native and PAR2M1 receptors
same,"receptor cleavage, luciferase luminescence (in words)",[2],cleaved the native and PAR2M1 receptors
same,"receptor cleavage, luciferase luminescence (in words)",[3],did not cleave PAR2M2 or PAR2M3
same,"receptor cleavage, luciferase luminescence (in words)",[4],did not cleave PAR2M2 or PAR2M3
same,calcium response on PAR2M2 (in words),[5],did not induce calcium responses; also recorded: not PAR2M2 or PAR2M3
same,calcium response on PAR2M3 (in words),[6],did not induce calcium responses; also recorded: not PAR2M2 or PAR2M3
